Measured values: patent US20140154245A1 (L AND K BIOMED, published 2014)

T1: human EMAPII (endothelial monocyte activating polypeptide II) antigen (human, UniProt Q12904 1-312, limits assumed)
T1 construct: also called EMAPII antigen; p43
T1 sequence: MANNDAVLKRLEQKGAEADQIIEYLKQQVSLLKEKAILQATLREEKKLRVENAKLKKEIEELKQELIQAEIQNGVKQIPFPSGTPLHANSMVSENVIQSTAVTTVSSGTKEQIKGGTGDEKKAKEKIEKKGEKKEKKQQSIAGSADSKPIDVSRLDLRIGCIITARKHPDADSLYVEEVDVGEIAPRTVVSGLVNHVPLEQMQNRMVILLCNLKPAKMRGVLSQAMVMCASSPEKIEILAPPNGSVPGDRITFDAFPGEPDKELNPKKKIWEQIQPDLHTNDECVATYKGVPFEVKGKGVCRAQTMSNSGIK

B1: mouse anti-EMAPII monoclonal antibody (antibody, V domains shown)
VH: QVQLQQSGAELARPGASVKMSCKASGYTFTSYTMHWVKQRPGQGLEWIGYINPSSGFTNYNQKFKDKATLTADKSSSTAYMQLSSLTSEDSAVYYCASRFAYWGQG
VL: DIVMTQSHKFMSTSVGDRVSITCKASQDVSTAVAWYQQKPGQSPKLLIFSASYRYTGVPDRFTGSGSGTDFTFTISSVQAEDLAVYYCQQHYSTPYTFGQG
notes: Mouse IgG1 with kappa light chain, from a hybridoma; also called murine EMAPII mAb; parental murine anti-EMAPII antibody
B2: mouse/human chimeric antibody BAP015-1 (antibody, V domains shown)
VH: QVQLQQSGAELARPGASVKMSCKASGYTFTSYTMHWVKQRPGQGLEWIGYINPSSGFTNYNQKFKDKATLTADKSSSTAYMQLSSLTSEDSAVYYCASRFAYWGQG
VL: DIVMTQSHKFMSTSVGDRVSITCKASQDVSTAVAWYQQKPGQSPKLLIFSASYRYTGVPDRFTGSGSGTDFTFTISSVQAEDLAVYYCQQHYSTPYTFGQG
notes: VL is fused to a human kappa constant region and VH to a human IgG1 constant region (full-length IgG1, from CHO-S supernatant); Three plasmid clones of the same construct were tested; they are treated as one molecule; also called chimeric anti-EMAPII antibody; chimeric clone BAP015-1

Assays:
[1] = molecular target: T1, human EMAPII (endothelial monocyte …); assay: ELISA, EMAPII antigen coated on the plate, antibody titrated
Method: (§1) Wells of a 96 well plate were coated with 100 μl of different concentrations of EMAPII antigen (10 μg/ml, 5 μg/ml, 2.5 μg/ml, 1 μg/ml, 0.5 μg/ml, 0.2 μg/ml) and were incubated at 37° C. for 2 hours. The coated antigens were blocked using BSA and washed with washing buffer. Dilutions of the parental murine anti-EMAPII antibody (starting at 1 μg/ml, two-fold serial dilution) were added to the antigens and incubated for 2 hours. The mixture was washed three times and anti-IgG-HRP antibody was added to the mixture and incubated for 1 hour. The mixture was washed with washing buffer three times. The substrate was added to the mixture and maintained for 30 minutes. After developing, stop solution was added and detected absorbance at the wavelength of 450 nm (FIG. 12). Bound antibody was detected with anti-mouse IgG-HRP conjugate. A concentration of 2.5 μg/ml antigen was selected for testing the chimeric clones.
(§2) The ability of mouse/human chimeric antibody BAP015_{—}1 to bind to the EMAPII antigen was determined by using the ELISA protocol provided by StemScience and the optimized conditions determined as described above. Bound chimeric antibody was detected with anti-human-IgG HRP conjugate (FIG. 13). All 3 clones tested bind to EMAPII. The binding curves of all 3 clones are very similar to each other and to the murine antibody.

[2] = molecular target: T1, human EMAPII (endothelial monocyte …); assay: ELISA, EMAPII antigen coated on the plate, antibody titrated (3 clones)
Method: as §1, §2

Binder	EC50 [1] [µg/mL]	EC50 [2] [µg/mL]
B1	0.0209	
B2		0.0215 to 0.0302
